Results on three molecules are retold here after patent US20140178935A1 (AVEO PHARMACEUTICALS, published 2014).

Assay [1] deals with T1, recombinant human HGF (R&D Systems, Catalog No. 294-HGN-025) (human, UniProt P14210 32-728).
T1 construct: Mature HGF is a disulfide-linked heterodimer of alpha and beta chain cut from one precursor; also called rhHGF (R&D Systems); rhHGF
The assay is described as follows: competition ELISA (DELFIA): antibody inhibits biotinylated c-Met binding to plate-coated HGF. The procedure:
The plates then were blocked with 200 μL of 5% non-fat dry milk in PBS for 1 hour at room temperature. […] 100 μL of sample per well was transferred to the assay plate and incubated for 2 hours at room temperature. The resulting plates were washed three times with PBS-0.1% Tween 20, and incubated for 1 hour at room temperature with Eu-labeled Streptavidin (Wallac, Catalog No. 1244-360) diluted 1:1000 in DELFIA assay buffer (Wallac, Catalog No. 4002-0010). The resulting plates were washed 3 times with DELFIA wash solution (Wallac, Catalog No. 4010-0010) and incubated with 100 μL/well DELFIA enhancement solution (Wallac #4001-0010) for 15 minutes at room temperature with agitation. The plates were read on Victor³V instrument (Perkin Elmer) using the Europium method. The IC₅₀ values were calculated using Prism.

For assay [2], the target named is T2, recombinant mouse HGF (R&D Systems) (mouse, UniProt Q08048 33-728).
T2 construct: Bought protein, construct not described; also called rmHGF (R&D Systems); murine HGF
T2 sequence (Q08048 33-728 limits assumed): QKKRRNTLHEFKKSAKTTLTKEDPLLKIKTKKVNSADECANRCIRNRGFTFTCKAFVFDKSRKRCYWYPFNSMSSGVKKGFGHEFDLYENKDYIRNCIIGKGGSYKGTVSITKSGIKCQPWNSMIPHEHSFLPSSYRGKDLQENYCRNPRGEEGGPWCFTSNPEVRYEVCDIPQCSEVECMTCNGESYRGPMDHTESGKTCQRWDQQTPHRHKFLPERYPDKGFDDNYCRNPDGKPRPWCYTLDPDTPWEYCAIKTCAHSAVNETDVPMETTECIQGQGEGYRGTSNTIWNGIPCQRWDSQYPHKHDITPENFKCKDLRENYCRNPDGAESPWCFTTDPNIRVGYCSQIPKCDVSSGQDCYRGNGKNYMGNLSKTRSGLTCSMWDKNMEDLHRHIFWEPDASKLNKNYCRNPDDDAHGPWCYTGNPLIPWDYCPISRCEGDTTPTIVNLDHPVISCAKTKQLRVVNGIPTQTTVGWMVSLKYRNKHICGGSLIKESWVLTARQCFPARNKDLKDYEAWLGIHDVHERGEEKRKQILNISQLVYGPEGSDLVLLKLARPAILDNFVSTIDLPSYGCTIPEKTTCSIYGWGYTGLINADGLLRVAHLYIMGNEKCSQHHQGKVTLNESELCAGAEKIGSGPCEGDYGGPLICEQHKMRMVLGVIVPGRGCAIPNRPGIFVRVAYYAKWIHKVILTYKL
In words: SPR, antibody immobilized, HGF protein injected, 25 C. The protocol: (§1) Analyses were performed at 25° C. using PBS (GIBCO, Catalog No. 14040-133) containing 0.05% surfactant P20 (BIAcore, Catalog No. R-1000-54), 2 mg/mL BSA (EMD, Catalog No. 2930) and 10 mg/mL CM-Dextran Sodium salt (Fluka, Catalog No. 86524) as running buffer. […] The resulting binding was determined as resonance units (RU) over baseline 30 seconds after the end of injection. […] Non-specific binding was monitored by comparing binding to a control surface.
In general terms: Surface plasmon resonance follows binding to a sensor surface in real time, without labels.

Assay [3] has as its target T3, recombinant mhm chimeric HGF protein containing human W507-L585 HGF sequence disposed within mouse HGF … (mouse-human-mouse chimera, UniProt Q08048 56-728).
T3 construct: CHO supernatant; also called mhm chimera (W507-L585); MHM chimera (507-585)
T3 chain: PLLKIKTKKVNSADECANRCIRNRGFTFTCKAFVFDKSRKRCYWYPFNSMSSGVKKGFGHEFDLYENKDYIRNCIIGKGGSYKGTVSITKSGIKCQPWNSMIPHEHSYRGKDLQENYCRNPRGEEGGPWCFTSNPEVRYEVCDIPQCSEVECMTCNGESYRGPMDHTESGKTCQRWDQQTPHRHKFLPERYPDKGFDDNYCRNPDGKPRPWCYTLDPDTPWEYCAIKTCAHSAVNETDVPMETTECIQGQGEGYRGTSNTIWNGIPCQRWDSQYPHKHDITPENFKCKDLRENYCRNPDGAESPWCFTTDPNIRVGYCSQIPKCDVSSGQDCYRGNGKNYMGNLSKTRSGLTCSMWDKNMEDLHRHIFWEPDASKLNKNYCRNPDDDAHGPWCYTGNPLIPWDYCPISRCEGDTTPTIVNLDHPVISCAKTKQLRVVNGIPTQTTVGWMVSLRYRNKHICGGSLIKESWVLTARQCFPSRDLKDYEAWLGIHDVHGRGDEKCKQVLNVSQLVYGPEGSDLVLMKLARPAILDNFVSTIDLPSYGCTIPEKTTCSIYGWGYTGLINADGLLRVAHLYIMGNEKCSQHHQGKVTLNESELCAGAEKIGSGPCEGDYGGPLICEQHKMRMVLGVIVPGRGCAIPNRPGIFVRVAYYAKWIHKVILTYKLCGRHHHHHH
The description is as above. The protocol: as §1

For assay [4], the target named is T4, recombinant mhm chimeric HGF protein containing the region I499-R556 of hHGF disposed between murine sequences (mouse-human-mouse chimera, UniProt Q08048 56-728).
T4 construct: also called mhm chimera (I499-R556)
T4 chain: T3 chain with Q443R, T445N, V446I, D499E, C502R, V505I, V508I, M523L
The description is as above. The protocol:
as §1

Assay [5] deals with T1, recombinant human HGF (R&D Systems, …). In words: SPR, captured antibody, HGF injected, 25 C. The protocol:
Mouse anti-human immunoglobulins (Jackson Labs, Catalog No. 209-005) were immobilized on carboxymethylated dextran CM4 sensor chips (BIAcore, Catalog No. BR-1006-68) by amine coupling (BIAcore, Catalog No. BR-1000-50) using a standard coupling protocol according to manufacturer's instructions. The analyses were performed at 25° C. using PBS (GIBCO, Catalog No. 14040-133) containing 0.05% surfactant P20 (BIAcore, Catalog No. BR-1000-54), and 2 mg/mL BSA (EMD, Catalog No. 2930).
(§2) The antibodies were captured in an individual flow cell at a flow rate of 10 μL/min. Injection time was variable for each antibody to yield approximately 20 RU of antibody captured for each cycle. […] The dissociation phase was monitored for 15 or 90 minutes, depending on concentration. The surface then was regenerated with 10 mM Glycine-HCl, pH 2.2 (BIAcore, Catalog No. BR-1003-54) injected for 3 minutes at a flow rate of 60 μL/min before another cycle was initiated.
Kinetic parameters were determined using the kinetic function of the BIAevalutation™ software with reference subtraction.

For assay [6] the target is unchanged. In words: cell-based or functional assay.
For assay [7] the target is unchanged. In words: cell-based or functional assay. This is another data set of the same source.
For assay [8] the target is unchanged. The assay is described as follows: SPR, captured antibody, HGF injected, 37 C. The procedure: Mouse anti-human immunoglobulins (Jackson Labs, Catalog No. 209-005) or rabbit anti-mouse immunoglobulins (BIAcore, Catalog No. BR-1005-14) were immobilized on carboxymethylated dextran CM4 sensor chips (BIAcore, Catalog No. BR-1006-68) by amine coupling (BIAcore, Catalog No. BR-1000-50) using a standard coupling protocol according to manufacturer's instructions. […] The analyses were performed at 25° C. and 37° C. using PBS (GIBCO, Catalog No. 14040-133) containing 0.05% surfactant P20 (BIAcore, Catalog No. BR-1000-54), and 2 mg/mL BSA (EMD, Catalog No. 2930) as running buffer.
as §2, with “[…].” for “μL/min.”, “surface of mouse anti-human immunoglobulins sensor chips was” for “surface”, “then” for “then was”, “initiated. The surface of rabbit anti-mouse immunoglobulins sensor chips was regenerated with 10 mM Glycine-HCl, pH 1.7 (BIAcore, Catalog No. BR-1003-54) injected for 3 minutes at a flow rate of 60 μL/min before another cycle was initiated.” for “initiated.”
Kinetic parameters were determined using the kinetic function of the BIAevaluation software with reference subtraction.

Substitutions are numbered along the chain they refer to.

T1 sequence (P14210 32-728 limits assumed): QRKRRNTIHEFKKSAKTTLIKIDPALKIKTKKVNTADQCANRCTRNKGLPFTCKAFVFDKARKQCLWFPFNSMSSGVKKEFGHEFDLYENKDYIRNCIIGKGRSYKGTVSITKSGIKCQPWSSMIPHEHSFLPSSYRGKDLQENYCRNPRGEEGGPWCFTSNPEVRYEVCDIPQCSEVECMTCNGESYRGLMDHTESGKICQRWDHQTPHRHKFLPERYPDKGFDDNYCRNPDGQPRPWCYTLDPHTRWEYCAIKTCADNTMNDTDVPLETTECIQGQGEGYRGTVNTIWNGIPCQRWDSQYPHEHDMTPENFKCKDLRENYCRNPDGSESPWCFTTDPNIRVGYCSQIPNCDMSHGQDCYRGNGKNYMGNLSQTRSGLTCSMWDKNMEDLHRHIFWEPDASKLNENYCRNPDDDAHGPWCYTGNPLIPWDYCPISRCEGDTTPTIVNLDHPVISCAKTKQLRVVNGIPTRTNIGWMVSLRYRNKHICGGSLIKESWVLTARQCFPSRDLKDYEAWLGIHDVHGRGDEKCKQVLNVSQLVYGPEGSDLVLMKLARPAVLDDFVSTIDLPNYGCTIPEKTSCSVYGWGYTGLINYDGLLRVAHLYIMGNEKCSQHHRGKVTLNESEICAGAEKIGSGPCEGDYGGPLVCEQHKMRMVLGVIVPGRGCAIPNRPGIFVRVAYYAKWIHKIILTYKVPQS

B1: HE2B8-2 (LR2B8HC + IgG1 constant region G1m(3) allotype allele 1, plus LRMR2B8LC + Kappa constant region Km(3) allotype allele 1) (antibody, V domains shown)
VH: QVQLVQPGAEVVKPGTSVKLSCKASGYTFTTYWMHWVNQAPGQGLEWIGEINPTNGHTNYNEKFKGKATLTVDKSTSTAYMELSSLRSEDTAVYYCARNYVGSIFDYWGQGTLLTVSS
VL: DIVMTQSPDSLAMSLGERVTLNCKASENVVSYVSWYQQKPGQSPKLLIYGASNRESGVPDRFSGSGSATDFTLTISSVQAEDVADYHCGQSYNYPYTFGQGTKLEIKR
notes: Human Engineered 2B8 variant, human IgG1 kappa, made in HEK293E cells
What is called IC50 is the concentration needed to halve the response being measured. As a reminder, the Kd is the equilibrium constant for the complex coming apart. One may read the koff as the rate constant with which the complex falls apart. A word on the kon: it is the second-order rate constant of association. On to B1, for which the IC50 in assay [1] was determined as 5700 pM. Also, in assay [2], the binding result was “no binding”. Also, the binding result in assay [3] is reported as “binds”. For the same molecule, in assay [4], the binding result is reported as “binds”. In assay [5], the Kd worked out at 5.2 pM, the koff came out at 9.6e-06 s⁻¹ and the kon was 1.8e+06 M⁻¹ s⁻¹. In addition, the “EC50, inhibition of HGF-stimulated c-Met phosphorylation in PC-3 cells, Average of Two Trials” value (“EC50, inhibition” for short) in assay [6] worked out at 880 pM. Besides, in assay [7], the “IC50, neutralization of HGF stimulated BrdU incorporation in 4 MBr-5 cells” value (shortened to “IC50, neutralization”) amounted to 660 pM.

B2: HE2B8-3 (LRMR2B8HC + IgG1 constant region G1m(3) allotype allele 1, plus LR2B8LC + Kappa constant region Km(3) allotype allele 1) (antibody, V domains shown)
VH: B1 VH with V12K, N38R, E62Q, K65Q, K67R
VL: B1 VL with L11M, L15V, E55N, S56T
notes: as for B1
Take B2: the IC50 in assay [1] amounted to 5900 pM. Also, the binding result in assay [2] is reported as “no binding”. Also, the binding result in assay [3] is “binds”. Also, in assay [4], the binding result is given as “binds”. Moreover, in assay [5], the Kd stood at 2 pM, the koff is 4.1e-06 s⁻¹ and the kon was 2e+06 M⁻¹ s⁻¹. In assay [6], the “EC50, inhibition” value was 790 pM. Besides, in assay [7], the “IC50, neutralization” value stood at 550 pM.

B3: sh2B8-9 (G1m(3)) = hu2B8 Hv5-51.1 + IgG1 constant region (G1m(3) allotype, allele 2) plus hu2B8 Kv1-39.1 + Kappa constant region (Km(3) allotype, allele 2) (antibody)
heavy: not shown
light: DIQMTQSPSSLSASVGDRVTITCKASENVVSYVSWYQQKPGKAPKLLIYGASNRNTGVPSRFSGSGSGTDFTLTISSLQPEDFATYYCGQSYNYPYTFGQGTKLEIKRTVAAPSVFIFPPSDEQLKSGTASVVCLLNNFYPREAKVQWKVDNALQSGNSQESVTEQDSKDSTYSLSSTLTLSKADYEKHKVYACEVTHQGLSSPVTKSFNRGEC
notes: Superhumanized 2B8 variant, human IgG1 kappa, made in 293T cells
Turning to B3, in assay [1], the IC50 is 4200 pM. For the same molecule, the binding result in assay [2] is reported as “no binding”. Besides, in assay [3], the binding result was “binds”. Besides, the binding result in assay [4] is on record as “binds”. For the same molecule, the “EC50, inhibition” value in assay [6] was 930 pM. Besides, in assay [8], the Kd worked out at 5.8 pM, the koff came out at 1.4e-05 s⁻¹ and the kon was determined as 2.5e+06 M⁻¹ s⁻¹. In addition, in assay [7], the “IC50, neutralization” value came out at 520 pM.
